# Laboratory results reported in patent US20200283521A1 (GRANULAR THERAPEUTICS, published 2020).
# B1: MH5.33 (antibody, IgG1, V domains shown)
# VH: QVQLVQSGAEVKKPGASVKVSCKASGYTFTNYYMNWVRQAPGQGLEWMGRIYPASGNTYYAQKFQGRVTMTRDTSTSTVYMELSSLRSEDTAVYYCARGVWYYDYWGQGTLVTVSS
# VL: DIQMTQSPSSLSASVGDRVTITCRASQGIRTNLAWFQQKPGKAPKSLIYAASSLQSGVPSRFSGSGSGTDFTLTISSLQPEDFATYYCQQYANYPRTFGGGTKVEIK
# notes: IgG1
# Experiments:
# [1] = target: T1, human C-KIT-Fc (human, UniProt P10721 26-524); assay: direct titration ELISA on coated C-KIT-Fc, IgG1 format
# T1 construct: also called biotinylated human C-KIT-Fc; not shown: Fc part not described
# [2] = target: T2, human C-KIT, full length, on cells (human, UniProt P10721 26-976); assay: flow cytometry, CHO-K1 transfectants
# T2 construct: full-length cDNA stably transfected in CHO-K1; also used here for endogenous C-KIT of TF-1 cells; also called human C-KIT+ CHO-K1 cells; C-KIT on TF-1 cells
binder,measurement,setting,value
B1,binding result,[1],no binding (tested: 10 µg/ml)
same,binding result,[2],binds
